Source: article PMC7212079

Molecular target: Hsp32
Test: native MS

Hsp32 (natural protein)
stoichiometry N: 2
